B1: TPR t1 (parent)
chain: GACCAAUCUGCCCUCAGAGCUCGAGAACAUCUUCGGAUGCAGAGGAGGCAGGCUUCGGUGGCGCGAUAGCGCCAACGUCCUCAACCUCCAAUGCAUCCCACCACAUGAUGAUGCCUGAAGAGCCUUGGUUUUUUG

Variants of: B1
Experiment: polymerase ribozyme fitness, log enrichment relative to wild type (log ratio); higher = more active; in vitro selection for triplet polymerase activity
Procedure, shortened: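 For each subunit of a heterodimeric triplet polymerase ribozyme, a mutant library was built by PCR and transcribed, then taken through a single in vitro selection round in triplicate. Selection involved annealing to a biotinylated primer, the partner subunit and triplets, incubation frozen at −7 °C, gel excision of extended constructs, capture on streptavidin beads and RT-PCR. Genotypes were retained after Illumina sequencing of inputs and outputs only with ≥10 input reads and ≥1 read in each output. Fitness is defined as the logarithm of a genotype's enrichment relative to wild-type enrichment, using inverse-variance-weighted averages across replicates, with the logarithm taken to base 2.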

| Variant | polymerase ribozyme fitness (log ratio) |
| --- | --- |
| GACCAAUCUGCCCUCAGUGCUCGAGAACAUCUUCGGAUGCAGAGGAGGCAGGCUUCGGUGGCGCGAUAGCGUCAACGACCUCAACCUCCAAUGCAUCCCACCACAUGAUGAUGCCUGAAGAGCCUUGGUUUUUUG [A18U C72U U78A] | -2.59 |
| GACCAAUCUGCCCUCAGUGCUCGAGAACAUCUUCGGAUGCAGAGGAGGCAGGCUUCGGUGGCGUGAUAGCGGCAACGUCCUCAACCUCCAAUGCAUCCCACCACAUGAUGAUGCCUGAAGGGCCUUGGUUUUUUG [A18U C64U C72G A121G] | -0.335 |
| GACCAAUCUGCCCUCAGUGCUCGAGAACAUCUUCGGAUGCAGAGGAGGCAGGCUUUGGUGGCGCGAUAGCGCCAACGUCCUCAACCUCCAAUGCAUCCCACCACAUGAUGAUGCCUGAAGAGGCUUGGAUUUUUG [A18U C56U C123G U129A] | -1.91 |
| GACCAAUCUGCCCUCAGUGCUCGAGAACAUCUUCGGAUGCAGAGGAGGCAGGCUUCGGUGGCGCGAUAGUGCCAACGUCCUCAACCUCCAAUGCAUCCCACCACAUGAUGAUGCCUGAAGUGCCUUGGUUUUUUG [A18U C70U A121U] | -1.34 |
| GACCAAUCUGCCCUCAGUGCUCGAGAACAUCUUCGGAUGCAGAGGAGGCAGGCUUCGGUGGCGUGAUAGCGCCAACGUCCUCAACCUCCAAUGCAUUCCACCACAUGAUGAUGCCCGAAAAGCCUUGGUUUUUUG [A18U C64U C97U U116C G120A] | -4.84 |
| GACCAAUCUGCCCUCAGUGCUCGAGAACAUCUUCGGAUGCAGAGGAGGCAGGCUUUGGUGGCGAGAUAACGCCAACGUCCUCAACCUCCAAUGCAUCCCACCACAUGAUGACGCCUGAAGAGCCUUGGAUUUUUG [A18U C56U C64A G69A U112C U129A] | -5.64 |
| GACCAAUCUGCCCUCAGUGCUCGAGAACAUCUUCGGAUGCAGAGGAGGCAGGCUUCGGUGGCGCGAUAGUGCCAACGUCCUCAGCCUCCAAUGCAUCCCACCACAUGAUGAUGCCUGAAGAGCCUUGGUUUUUUG [A18U C70U A84G] | -6.3 |
| GACCAAUCUGCCCUCAGUGCUCGAGAACAUCUUCGGAUGCAGAGGAGGCAGGCUUCGGUGGCGCGAUAGCGUCAACGUCCUCAACCUCCAAUGCAUCCCACCACAUGAUGAUGCCUGAAGAGCCUUGGUUUUUUG [A18U C72U] | -2.03 |
| GACCAAUCUGCCCUCAGUGCUCGAGAACAUCUUCGGAUGCAGAGGAGGCAGGCUUCGGUGGCGCGAUAGCGUCAACGUCCUCAAACUCCAAUGCAUCCCACCACAUGAUGAUGCCUGAAGAGCCUUGGUUUUUUG [A18U C72U C85A] | -3.5 |
| GACCAAUCUGCCCUCAGUGCUCGAGAACAUCUUCGGAUGCAGAGGAGGCAGGCUUCGGUGGCGCGAUAGUGCCAACGUCCUCAACCUCCAAUGCAUCCCACCACAUGAUGAUGCCUGAAGAGCCUUGGUUUUUUG [A18U C70U] | -3.33 |
| GACCAAUCUGCCCUCAGUGCUCGAGAACAUCUUCGGAUGCAGAGGAGGCAGGCUUCGGUGGCGCGAUAGGGCCAACGUCCUCAACCUCCAAUGCAUCCCACCACAUGAUGAUGCCUGAAGAGCCUUGGUUUUUUG [A18U C70G] | -6.16 |
| GACCAAUCUGCCCUCAGUGCUCGAGAACAUCUUCGGAUGCAGAGGAGGCAGGCUUCGGUGGCGCGAUAGAGCCAACGUCCUCAACCUCCAAUGCAUCCCACCACAUGAUGAUGCCUGAAGAGCCUUGGUUUUUUG [A18U C70A] | -5.29 |
| GACCAAUCUGCCCUCAGUGCUCGAGAACAUCUUCGGAUGCAGAGGAGGCAGGCUUCGGUGGUGCGAUAGCGCCAACGUCCUCACCCUCCAAUGCAUCCCACCACAUGAUGAUGCCUGAAUAGCCUUGGUUUUUUU [A18U C62U A84C G120U G135U] | -5.35 |
| GACCAAUCUGCCCUCAGUGCUCGAGAACAUCUUCGGAUGCAGAGGAGGCAGGCUUCGGUGGCGUGAUAGCGCCAACGUCCUCAACCUCCAAUGCAUCCCACCACAUGAUGAUGCCUGAAGAGCCUUGGUUUUUUG [A18U C64U] | -2 |
| GACCAAUCUGCCCUCAGUGCUCGAGAACAUCUUCGGAUGCAGAGGAGGCAGGCUUCGGUGGUGCGAUAGCGCCAACGUCCUCAACCUCCAAUGCAUCCCACCACAUGAUGAUGCCUGAAGAGCCUUGGUUUUUUG [A18U C62U] | -2.48 |
| GACCAAUCUGCCCUCAGUGCUCGAGAACAUCUUCGGAUGCAGAGGAGGCAGGCUUCGGUGGGGCGAUAGCGCCAACGUCCUCAACCUCCAAUGCAUCCCACCACAUGAUGAUGCCUGAAGAGCCUUGGUUUUUUG [A18U C62G] | -4.86 |
| GACCAAUCUGCCCUCAGUGCUCGAGAACAUCUUCGGAUGCAGAGGAGGCAGGCUUUGGUGGCGCGAUAGCGCCAACGUCCUCAACCGCCAAUGCAUCCCACCACACGAUGAUGCCUGAAGCGCCUUGGUUUUUUG [A18U C56U U87G U106C A121C] | -0.72 |
| GACCAAUCUGCCCUCAGUGCUCGAGAACAUCUUCGGAUGCAGAGGAGGCAGGCUUCGGUGGCGCGAUAGGGCCAACGUACUCAACCUCCAAUGCAUCCCACCACAUGAUGAUGCCUGAAGAGCCUUGGUUUUUUG [A18U C70G C79A] | -7.76 |
| GACCAAUCUGCCCUCAGUGCUCGAGAACAUCUUCGGAUGCAGAGGAGGCAGGCUUCGGUGGUGCGAUAGCGCCAACGUCCUCAACAUCCAAUGCAUCCCACCACAUGAUGAUGUCUGAAGAGCCUUGGUUUUUUG [A18U C62U C86A C114U] | -5.98 |
| GACCAAUCUGCCCUCAGUGCUCGAGAACAUCUUCGGAUGCAGAGGAGGCAGGCUUCGGUGGGGCGAUAGCGCCAACGUCCUAAACCUCCAAUGCAUCCCACCACAUGAUGAUGACUGAAGAGCCUUGGUUAUUUA [A18U C62G C82A C114A U131A G135A] | -4.32 |
| GACCAAUCUGCCCUCAGUGCUCGAGAACAUCUUCGGAUGCAGAGGAGGCAGGCUUCGGUGGUGUGAUAGCGCCCACGUCCUCAACCUCCUAUGCAUCCCACCACAUGAUGAUGCCUGAAGCGCCUUGGAUUUUUG [A18U C62U C64U A74C A90U A121C U129A] | -6.59 |
